{
  "source": "patent US20140134169A1",
  "about": "“Methods of Treating Ovarian Cancer with Dll4 Antagonists” (Regeneron Pharmaceuticals, Inc., priority 2012, published 2014)",
  "key": {"[1]": {"test_system": "human A549 tumor cells (non-small cell lung cancer)", "test": "Growth of human A549 tumors implanted in humanized Dll4 SCID mice", "assay_type": "in vivo", "conditions": "REGN421 2 mg/kg sc (6 mg/kg total)", "description": "Tumor growth delay, TGD, was assessed as the difference in days between treated (T) versus control (C) tumors when each cohort reached a specified tumor size. The predetermined tumor size for this experiment was 600 mm^3.\nEach mouse was implanted subcutaneously (sc) with 5×10^6 human A549 tumor cells (non-small cell lung cancer or “NSCLC”). […] A total of 36 mice were divided into 6 groups (n=6 per cohort). The first group was treated sc with hFc at 2 mg/kg; the second group was treated sc with REGN421 at 2 mg/kg; the third and fourth groups were treated ip with cisplatin at 2.5 and 4.5 mg/kg, respectively; the fifth group was treated sc with REGN421 at 2 mg/kg and ip with cisplatin at 2.5 mg/kg; and the sixth group was treated sc with REGN421 at 2 mg/kg and ip with cisplatin at 4.5 mg/kg. REGN421 was administered every 3-4 days starting on day 29 and mice received three doses total. Cisplatin was administered every 24 hours starting on day 29 and mice received two doses total.\nTo assess the effects of REGN421 and cisplatin as single agents or in combination we measured tumor size (volume), beginning three days before the initial REGN421 treatment, on the day of each agent treatment (days 29, 30, 33, 36) and thereafter every 3-4 days until tumors reached ˜600 mm^3 in size."}, "[2]": {"test_system": "human HCT116 tumor cells (CRC)", "test": "Growth of human HCT116 tumors in humanized Dll4 SCID mice (5-FU study)", "assay_type": "in vivo", "conditions": "REGN421 2 mg/kg sc (6 mg/kg total)", "description": "Each mouse was implanted subcutaneously (sc) with 5×10^6 human HCT116 tumor cells (CRC). […] The mice were then treated with hFc, REGN421, 5-FU or combination of REGN421 and 5-FU. A total of 30 mice were divided into 6 groups (n=5 per cohort). The first group was treated sc with hFc at 2 mg/kg; the second group was treated sc with REGN421 at 2 mg/kg; the third and fourth groups were treated ip with 5-FU at 15 and 25 mg/kg, respectively; the fifth group was treated sc with REGN421 at 2 mg/kg and ip with 5-FU at 15 mg/kg; and the sixth group was treated sc with REGN421 at 2 mg/kg and ip with 5-FU at 25 mg/kg. REGN421 was administered every 3-4 days starting on day 22 and mice received three doses total. 5-FU was administered every 3-4 days starting on day 22 and mice received three doses total.\nTo assess the effects of REGN421 and 5-FU as single agents or in combination, the changes in tumor size (volume) were measured, beginning three days before the initial REGN421 treatment, and then on the day of each agent treatment (days 22, 26, 29) and thereafter every 3-4 days until tumors reach ˜600 mm^3 in size. In vivo tumor size is calculated using the formula (length×width^2)/2 (FIG. 3 and Table 5)."}, "[3]": {"test_system": "Hey-1 transcript (Dll4-notch signaling pathway)", "test": "Hey-1 transcript in Phase I patient samples (microarray)", "assay_type": "in vivo, human", "conditions": "all samples, 0.25 and 0.5 mg/kg", "description": "The pharmacodynamic effect of REGN421 on the Dll4-notch signaling pathway has been analyzed using microarray technology on the patient serum samples collected prior to as well as 24 hours following REGN421 administration."}},
  "data": [
    {"molecule": "REGN421 (antibody, V domains shown) VH: QVQLVESGGGVVQPGRSLRLSCAASGFTFSSYGMHWVRQAPGKGLEWVSFLWYDGTNKNYVESVKGRFTISRDNSKNMLYLEMNSLRAEDTAVYYCARDHDFRSGYEGWFDPWGQGTLVTVSS VL: EIVLTQSPATLSLSPGERATLSCRASQSVSSYLAWYQQKPGQAPRLLIYDASNRATGIPARFSGSGSGTDFTLTISSLEPEDFAVYYCQHRSNWPPTFGGGTKVEIK", "values": [
      {"measurement": "TGD", "setting": "[1]", "result": 8, "unit": "days"},
      {"measurement": "TGI (%) at Day 57", "setting": "[1]", "result": 54, "unit": "%"},
      {"measurement": "TGD", "setting": "[2]", "result": 6, "unit": "days"},
      {"measurement": "TGI(%) at Day 39", "setting": "[2]", "result": 36.3, "unit": "%"},
      {"measurement": "expression of the Hey-1 gene compared to pre-treatment samples", "setting": "[3]", "result": "reduced"}
    ]}
  ]
}
